Tested on: Escherichia coli TOP10
Experiment: shrunken log2 fold change of peptide-encoding DNA abundance (4.5 h post-induction vs induction); higher = less antimicrobial activity (less host growth inhibition)
Details: time post-induction: 4.5 h; library: site-saturation at positions 5, 18, 19, 20
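Further: peptides expressed intracellularly from a pBAD plasmid library in pooled LB shake-flask culture, induced with 0.3% L-arabinose, DNA abundance read by NGS, three biological replicates, DESeq2 with apeglm shrinkage.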

Row | Sequence | shrunken log2 fold change
1 | RRIRIRPPRLPRPRPRPPQWPRP | 0.205
2 | RRIRIRPPRLPRPRPRPPRAPRP | 0.417
3 | RRIRIRPPRLPRPRPRPPRCPRP | 0.0758
4 | RRIRIRPPRLPRPRPRPPSKPRP | 0.147
5 | RRIRIRPPRLPRPRPRPPSTPRP | 0.0126
6 | RRIRIRPPRLPRPRPRPPSVPRP | -0.0681
7 | RRIRIRPPRLPRPRPRPPTLPRP | -0.431
8 | RRIRIRPPRLPRPRPRPPYPPRP | -0.188
9 | RRIRIRPPRLPRPRPRPPYRPRP | -0.468
10 | RRIRIRPPRLPRPRPRPPYWPRP | -0.00803
11 | RRIRIRPPRLPRPRPRPQEAPRP | 0.0332
12 | RRIRIRPPRLPRPRPRPQEQPRP | -0.0376
13 | RRIRIRPPRLPRPRPRPQHAPRP | 0.16
14 | RRIRIRPPRLPRPRPRPQIYPRP | -1.08
15 | RRIRIRPPRLPRPRPRPQKPPRP | -0.00327
16 | RRIRIRPPRLPRPRPRPQKQPRP | -0.128
17 | RRIRIRPPRLPRPRPRPQLHPRP | -0.252
18 | RRIRIRPPRLPRPRPRPQMEPRP | -0.12
19 | RRIRIRPPRLPRPRPRPQNEPRP | -0.226
20 | RRIRIRPPRLPRPRPRPQNRPRP | -0.386
21 | RRIRIRPPRLPRPRPRPQPIPRP | -0.00642
22 | RRIRIRPPRLPRPRPRPQPPPRP | -0.0122
23 | RRIRIRPPRLPRPRPRPQREPRP | 0.0374
24 | RRIRIRPPRLPRPRPRPQRKPRP | -0.104
25 | RRIRIRPPRLPRPRPRPQRLPRP | 0.0966

Row | Sequence | shrunken log2 fold change
26 | RRIRIRPPRLPRPRPRPQRMPRP | -0.387
27 | RRIRIRPPRLPRPRPRPQRQPRP | 0.098
28 | RRIRIRPPRLPRPRPRPQVFPRP | -0.0107
29 | RRIRIRPPRLPRPRPRPQVGPRP | -0.094
30 | RRIRIRPPRLPRPRPRPQVHPRP | -0.707
31 | RRIRIRPPRLPRPRPRPQVKPRP | -0.405
32 | RRIRIRPPRLPRPRPRPQVNPRP | -0.444
33 | RRIRIRPPRLPRPRPRPQVRPRP | -0.223
34 | RRIRIRPPRLPRPRPRPQWGPRP | -0.000367
35 | RRIRIRPPRLPRPRPRPQWWPRP | 0.0271
36 | RRIRIRPPRLPRPRPRPRAQPRP | 0.27
37 | RRIRIRPPRLPRPRPRPRARPRP | 0.456
38 | RRIRIRPPRLPRPRPRPRCGPRP | 0.0437
39 | RRIRIRPPRLPRPRPRPRCLPRP | -0.228
40 | RRIRIRPPRLPRPRPRPRCVPRP | -0.0162
41 | RRIRIRPPRLPRPRPRPRDSPRP | -0.346
42 | RRIRIRPPRLPRPRPRPREHPRP | -0.393
43 | RRIRIRPPRLPRPRPRPRGSPRP | -0.189
44 | RRIRIRPPRLPRPRPRPRHIPRP | -0.19
45 | RRIRIRPPRLPRPRPRPRHNPRP | -0.245
46 | RRIRIRPPRLPRPRPRPRHVPRP | -0.163
47 | RRIRIRPPRLPRPRPRPRKQPRP | -0.00244
48 | RRIRIRPPRLPRPRPRPRKTPRP | 0.13
49 | RRIRIRPPRLPRPRPRPRLEPRP | 0.117
50 | RRIRIRPPRLPRPRPRPRMSPRP | -0.323

Row | Sequence | shrunken log2 fold change
51 | RRIRIRPPRLPRPRPRPRNNPRP | -0.355
52 | RRIRIRPPRLPRPRPRPRRAPRP | 0.176
53 | RRIRIRPPRLPRPRPRPRSFPRP | -0.0641
54 | RRIRIRPPRLPRPRPRPRSQPRP | 0.085
55 | RRIRIRPPRLPRPRPRPRTSPRP | 0.0339
56 | RRIRIRPPRLPRPRPRPRVVPRP | 0.00259
57 | RRIRIRPPRLPRPRPRPRYGPRP | -0.411
58 | RRIRIRPPRLPRPRPRPRYMPRP | -0.114
59 | RRIRIRPPRLPRPRPRPSAKPRP | -0.0328
60 | RRIRIRPPRLPRPRPRPSCRPRP | -0.644
61 | RRIRIRPPRLPRPRPRPSDQPRP | -0.528
62 | RRIRIRPPRLPRPRPRPSERPRP | -0.073
63 | RRIRIRPPRLPRPRPRPSEVPRP | 0.0174
64 | RRIRIRPPRLPRPRPRPSFHPRP | -1.13
65 | RRIRIRPPRLPRPRPRPSHCPRP | -0.505
66 | RRIRIRPPRLPRPRPRPSIAPRP | -0.628
67 | RRIRIRPPRLPRPRPRPSLGPRP | -0.245
68 | RRIRIRPPRLPRPRPRPSMIPRP | -0.458
69 | RRIRIRPPRLPRPRPRPSMKPRP | -0.56
70 | RRIRIRPPRLPRPRPRPSPMPRP | -0.2
71 | RRIRIRPPRLPRPRPRPSQLPRP | -0.385
72 | RRIRIRPPRLPRPRPRPSRCPRP | -0.174
73 | RRIRIRPPRLPRPRPRPSRWPRP | 0.324
74 | RRIRIRPPRLPRPRPRPSRYPRP | -0.759
75 | RRIRIRPPRLPRPRPRPSTEPRP | -0.388

Row | Sequence | shrunken log2 fold change
76 | RRIRIRPPRLPRPRPRPSTYPRP | -1.63
77 | RRIRIRPPRLPRPRPRPSVHPRP | -0.278
78 | RRIRIRPPRLPRPRPRPSWQPRP | 0.144
79 | RRIRIRPPRLPRPRPRPSWWPRP | -0.059
80 | RRIRIRPPRLPRPRPRPSYWPRP | -0.781
81 | RRIRIRPPRLPRPRPRPTAEPRP | -0.0333
82 | RRIRIRPPRLPRPRPRPTAGPRP | -0.167
83 | RRIRIRPPRLPRPRPRPTAWPRP | 0.152
84 | RRIRIRPPRLPRPRPRPTCLPRP | -0.0168
85 | RRIRIRPPRLPRPRPRPTCSPRP | -0.371
86 | RRIRIRPPRLPRPRPRPTGEPRP | 0.00229
87 | RRIRIRPPRLPRPRPRPTHRPRP | -0.322
88 | RRIRIRPPRLPRPRPRPTHTPRP | -0.448
89 | RRIRIRPPRLPRPRPRPTHWPRP | 0.133
90 | RRIRIRPPRLPRPRPRPTLDPRP | 1.36
91 | RRIRIRPPRLPRPRPRPTLFPRP | -0.131
92 | RRIRIRPPRLPRPRPRPTLWPRP | 0.22
93 | RRIRIRPPRLPRPRPRPTMLPRP | -0.487
94 | RRIRIRPPRLPRPRPRPTMWPRP | -0.0599
95 | RRIRIRPPRLPRPRPRPTNLPRP | -0.606
96 | RRIRIRPPRLPRPRPRPTPFPRP | -0.133
97 | RRIRIRPPRLPRPRPRPTQLPRP | 0.31
98 | RRIRIRPPRLPRPRPRPTQVPRP | 0.00035
99 | RRIRIRPPRLPRPRPRPTRAPRP | 0.561
100 | RRIRIRPPRLPRPRPRPTTFPRP | -0.688

Row | Sequence | shrunken log2 fold change
101 | RRIRIRPPRLPRPRPRPTVQPRP | -0.146
102 | RRIRIRPPRLPRPRPRPTWNPRP | 0.409
103 | RRIRIRPPRLPRPRPRPTYDPRP | -1.08
104 | RRIRIRPPRLPRPRPRPTYEPRP | -0.458
105 | RRIRIRPPRLPRPRPRPTYSPRP | -0.408
106 | RRIRIRPPRLPRPRPRPTYWPRP | -0.421
107 | RRIRIRPPRLPRPRPRPVAFPRP | -0.306
108 | RRIRIRPPRLPRPRPRPVAHPRP | 0.0168
109 | RRIRIRPPRLPRPRPRPVCLPRP | -0.369
110 | RRIRIRPPRLPRPRPRPVCMPRP | -0.564
111 | RRIRIRPPRLPRPRPRPVEKPRP | -0.126
112 | RRIRIRPPRLPRPRPRPVFAPRP | 0.0576
113 | RRIRIRPPRLPRPRPRPVFMPRP | -0.275
114 | RRIRIRPPRLPRPRPRPVFPPRP | -0.221
115 | RRIRIRPPRLPRPRPRPVGDPRP | -0.0246
116 | RRIRIRPPRLPRPRPRPVGKPRP | -0.118
117 | RRIRIRPPRLPRPRPRPVGVPRP | -0.157
118 | RRIRIRPPRLPRPRPRPVHVPRP | -0.168
119 | RRIRIRPPRLPRPRPRPVIKPRP | -0.918
120 | RRIRIRPPRLPRPRPRPVILPRP | -0.423
121 | RRIRIRPPRLPRPRPRPVKPPRP | 0.0254
122 | RRIRIRPPRLPRPRPRPVMVPRP | -0.066
123 | RRIRIRPPRLPRPRPRPVPAPRP | 0.0984
124 | RRIRIRPPRLPRPRPRPVQTPRP | -0.0646
125 | RRIRIRPPRLPRPRPRPVTRPRP | 0.0796

Row | Sequence | shrunken log2 fold change
126 | RRIRIRPPRLPRPRPRPVVYPRP | -0.312
127 | RRIRIRPPRLPRPRPRPVWAPRP | -0.0187
128 | RRIRIRPPRLPRPRPRPWAIPRP | -0.0196
129 | RRIRIRPPRLPRPRPRPWCRPRP | -0.521
130 | RRIRIRPPRLPRPRPRPWGYPRP | -0.156
131 | RRIRIRPPRLPRPRPRPWHDPRP | -0.676
132 | RRIRIRPPRLPRPRPRPWICPRP | -0.132
133 | RRIRIRPPRLPRPRPRPWILPRP | -0.349
134 | RRIRIRPPRLPRPRPRPWITPRP | -0.917
135 | RRIRIRPPRLPRPRPRPWKWPRP | -0.00992
136 | RRIRIRPPRLPRPRPRPWMNPRP | -0.238
137 | RRIRIRPPRLPRPRPRPWNLPRP | 0.0133
138 | RRIRIRPPRLPRPRPRPWNRPRP | 0.000744
139 | RRIRIRPPRLPRPRPRPWNTPRP | -0.256
140 | RRIRIRPPRLPRPRPRPWPFPRP | -0.259
141 | RRIRIRPPRLPRPRPRPWPGPRP | -0.172
142 | RRIRIRPPRLPRPRPRPWPTPRP | 0.331
143 | RRIRIRPPRLPRPRPRPWQTPRP | 0.0238
144 | RRIRIRPPRLPRPRPRPWRDPRP | -0.0858
145 | RRIRIRPPRLPRPRPRPWRGPRP | -0.129
146 | RRIRIRPPRLPRPRPRPWTEPRP | -0.843
147 | RRIRIRPPRLPRPRPRPWTKPRP | 0.0573
148 | RRIRIRPPRLPRPRPRPWTPPRP | -0.179
149 | RRIRIRPPRLPRPRPRPWVIPRP | -0.0141
150 | RRIRIRPPRLPRPRPRPWWDPRP | -0.309
